Earlier results, collected in publication PMC10653114.

Key:
Asp143 = Asp143 (UniProt position 225, NIWSEDNADSG); settings: 298 K; Conc. 0.10 (unit not given; K+/Cl–)
Asp146 = Asp146 (UniProt position 228, SEDNADSGQ--); settings: 298 K; Conc. 0.10 (unit not given; K+/Cl–)
Asp19 = Asp19 (UniProt position 101, LIKAIDGDTVK); settings: 298 K; Conc. 0.10 (unit not given; K+/Cl–)
Asp21 [1] = target: Asp21 (UniProt position 103, KAIDGDTVKLM); settings: 298 K; Conc. 0.10 (unit not given; K+/Cl–)
Asp40 = Asp40 (UniProt position 122, RLLLVDTPETK); settings: 298 K; Conc. 0.10 (unit not given; K+/Cl–)
Asp77 = Asp77 (UniProt position 159, IEVEFDKGQRT); settings: 298 K; Conc. 0.10 (unit not given; K+/Cl–)
Asp83 = Asp83 (UniProt position 165, KGQRTDKYGRG); settings: 298 K; Conc. 0.10 (unit not given; K+/Cl–)
Asp95 = Asp95 (UniProt position 177, AYIYADGKMVN); settings: 298 K; Conc. 0.10 (unit not given; K+/Cl–)
Glu10 = Glu10 (UniProt position 92, KKLHKEPATLI); settings: 298 K; Conc. 0.10 (unit not given; K+/Cl–)
Glu101 = Glu101 (UniProt position 183, GKMVNEALVRQ); settings: 298 K; Conc. 0.10 (unit not given; K+/Cl–)
Glu122 = Glu122 (UniProt position 204, GNNTHEQLLRK); settings: 298 K; Conc. 0.10 (unit not given; K+/Cl–)
Glu129 = Glu129 (UniProt position 211, LLRKAEAQAKK); settings: 298 K; Conc. 0.10 (unit not given; K+/Cl–)
Glu135 = Glu135 (UniProt position 217, AQAKKEKLNIW); settings: 298 K; Conc. 0.10 (unit not given; K+/Cl–)
Glu142 = Glu142 (UniProt position 224, LNIWSEDNADS); settings: 298 K; Conc. 0.10 (unit not given; K+/Cl–)
Glu43 = Glu43 (UniProt position 125, LVDTPETKHPK); settings: 298 K; Conc. 0.10 (unit not given; K+/Cl–)
Glu52 = Glu52 (UniProt position 134, PKKFNEKYGPE); settings: 298 K; Conc. 0.10 (unit not given; K+/Cl–)
Glu57 = Glu57 (UniProt position 139, EKYGPEASAFT); settings: 298 K; Conc. 0.10 (unit not given; K+/Cl–)
Glu67 = Glu67 (UniProt position 149, TKKMVENAKKI); settings: 298 K; Conc. 0.10 (unit not given; K+/Cl–)
Glu73 = Glu73 (UniProt position 155, NAKKIEVEFDK); settings: 298 K; Conc. 0.10 (unit not given; K+/Cl–)
Glu75 = Glu75 (UniProt position 157, KKIEVEFDKGQ); settings: 298 K; Conc. 0.10 (unit not given; K+/Cl–)
Asp101 = Asp101 (UniProt position 119, KKIVSDGNGMN); test: NMR (per the title of cited ref 36); settings: 300 K; Conc. 0.10 (unit not given; Na+/Cl–)
Asp119 = Asp119 (UniProt position 137, RCKGTDVQAWI); test: NMR (per the title of cited ref 36); settings: 300 K; Conc. 0.10 (unit not given; Na+/Cl–)
Asp18 = Asp18 (UniProt position 36, KRHGLDNYRGY); test: NMR (per the title of cited ref 36); settings: 300 K; Conc. 0.10 (unit not given; Na+/Cl–)
Asp48 = Asp48 (UniProt position 66, TNRNTDGSTDY); test: NMR (per the title of cited ref 36); settings: 300 K; Conc. 0.10 (unit not given; Na+/Cl–)
Asp52 = Asp52 (UniProt position 70, TDGSTDYGILQ); test: NMR (per the title of cited ref 36); settings: 300 K; Conc. 0.10 (unit not given; Na+/Cl–)
Asp66 = Asp66 (UniProt position 84, RWWCNDGRTPG); test: NMR (per the title of cited ref 36); settings: 300 K; Conc. 0.10 (unit not given; Na+/Cl–)
Asp87 = Asp87 (UniProt position 105, ALLSSDITASV); test: NMR (per the title of cited ref 36); settings: 300 K; Conc. 0.10 (unit not given; Na+/Cl–)
Glu35 = Glu35 (UniProt position 53, CAAKFESNFNT); test: NMR (per the title of cited ref 36); settings: 300 K; Conc. 0.10 (unit not given; Na+/Cl–)
Glu7 = Glu7 (UniProt position 25, VFGRCELAAAM); test: NMR (per the title of cited ref 36); settings: 300 K; Conc. 0.10 (unit not given; Na+/Cl–)
Lys116 = Lys116 (UniProt position 134, WRNRCKGTDVQ); test: NMR (per the title of cited ref 36); settings: 300 K; Conc. 0.10 (unit not given; Na+/Cl–)
Lys13 = Lys13 (UniProt position 31, LAAAMKRHGLD); test: NMR (per the title of cited ref 36); settings: 300 K; Conc. 0.10 (unit not given; Na+/Cl–)
Lys33 = Lys33 (UniProt position 51, WVCAAKFESNF); test: NMR (per the title of cited ref 36); settings: 300 K; Conc. 0.10 (unit not given; Na+/Cl–)
Lys96 = Lys96 (UniProt position 114, SVNCAKKIVSD); test: NMR (per the title of cited ref 36); settings: 300 K; Conc. 0.10 (unit not given; Na+/Cl–)
Lys97 = Lys97 (UniProt position 115, VNCAKKIVSDG); test: NMR (per the title of cited ref 36); settings: 300 K; Conc. 0.10 (unit not given; Na+/Cl–)
Asp43 = Asp43 (UniProt position 417, WTLTFDFPSGQ); settings: 298 K; Conc. 0.10 (unit not given; K+/Cl–)
Asp21 [2] = target: Asp21 (UniProt position 41, VSILSDASFNQ); test: not stated (the title of ref 83 mentions NMR pH-dependent chemical shifts); settings: 313 K; Conc. 0.0 (unit not given; Na+/Cl–)
Asp30 = Asp30 (UniProt position 50, NQCSTDSGYSM); test: as above; settings: 313 K; Conc. 0.0 (unit not given; Na+/Cl–)
Asp72 = Asp72 (UniProt position 92, NPPNCDLTVPT); test: as above; settings: 313 K; Conc. 0.0 (unit not given; Na+/Cl–)
Lys61 = Lys61 (UniProt position 81, CNTMIKKIVTL); test: as above; settings: 313 K; Conc. 0.0 (unit not given; Na+/Cl–)
Lys94 = Lys94 (UniProt position 114, NGFSNKCSSL-); test: as above; settings: 313 K; Conc. 0.0 (unit not given; Na+/Cl–)

For “Staphylococcal nuclease, Delta+PHS variant (Staphylococcus aureus; G50F;V51N;P117G;H124L;S128A;del44-49)”, the pKa (Asp143) is given as 3.8 ± 0.1, the pKa (Asp146) is given as 3.86 ± 0.05 and the pKa (Asp19) is given as 2.21 ± 0.07. The pKa (Asp21 [1]) was 6.53 ± 0.02, the pKa (Asp40) was 3.87 ± 0.09 and the pKa (Asp77) was <2.2. For the same substance, the pKa (Asp83) was <2.2, the pKa (Asp95) was 2.16 ± 0.07 and the pKa (Glu10) was 2.82 ± 0.09. The pKa (Glu101) was 3.81 ± 0.1, the pKa (Glu122) was 3.89 ± 0.09 and the pKa (Glu129) was 3.75 ± 0.09. For the same substance, the pKa (Glu135) was 3.76 ± 0.08, the pKa (Glu142) was 4.49 ± 0.04 and the pKa (Glu43) was 4.32 ± 0.04. The pKa (Glu52) was 3.93 ± 0.08, the pKa (Glu57) was 3.49 ± 0.09 and the pKa (Glu67) was 3.76 ± 0.07. For the same substance, the pKa (Glu73) was 3.31 ± 0.01 and the pKa (Glu75) was 3.26 ± 0.05.

In the case of “Hen egg-white lysozyme (HEWL) (Gallus gallus)”, the pKa (Asp101) is given as 4.09 ± 0.07, the pKa (Asp119) is given as 3.2 ± 0.09 and the pKa (Asp18) is given as 2.66 ± 0.08. For the same substance, the pKa (Asp48) was 1.60 ± 0.4, the pKa (Asp52) was 3.68 ± 0.08 and the pKa (Asp66) was 0.90 ± 0.5. For the same substance, the pKa (Asp87) was 2.07 ± 0.15, the pKa (Glu35) was 6.20 ± 0.10 and the pKa (Glu7) was 2.85 ± 0.25. The pKa (Lys116) was 10.40 ± 0.10, the pKa (Lys13) was 10.50 ± 0.10 and the pKa (Lys33) was 10.60 ± 0.10. For the same substance, the pKa (Lys96) was 10.80 ± 0.10 and the pKa (Lys97) was 10.30 ± 0.10.

For “Highly charge-depleted protein (PDB 6QFS), S43D/T66H variant (Cellulomonas fimi (parent domain; not stated in the article); S43D;T66H (on the 6QFS charge-depleted background; background substitutions not stated))”, the pKa (Asp43) is given as 4.32 ± 0.02.

For “Beta-cryptogein (beta-elicitin) (Phytophthora cryptogea)”, the pKa (Asp21 [2]) is listed as 2.49 ± 0.05, the pKa (Asp30) is listed as 2.51 ± 0.09 and the pKa (Asp72) is listed as 2.61 ± 0.15. The pKa (Lys61) was 10.1 and the pKa (Lys94) was 9.4.

For “Highly charge-depleted protein (PDB 6QFS), S43D variant (Cellulomonas fimi (parent domain; not stated in the article); S43D (on the 6QFS charge-depleted background; background substitutions not stated))”, the pKa (Asp43) is given as 4.37 ± 0.01.
